Test [1] addresses T1, human NGF protein (Sino biological, 11050-HNAC) (human, UniProt P01138 122-241). In words: cell-based or functional assay.
Test [2] deals with T1, human NGF protein (Sino biological, …). The test can be described thus: SPR (Biacore), antibody captured on Protein A chip, antigen in flow, 1:1 fit. Here is the method: Reaction signals were detected in real time by using Biacore, and binding and dissociation curves were obtained. After dissociation was complete in each cycle, the biochip was washed and regenerated with a glycine-hydrochloric acid regeneration solution (GE, BR-1003-54) having a pH of 1.5. Fitting was performed on the experimental data using BIAevaluation version 4.1 software with a 1:1 model, and affinity values were obtained.
(In general: In SPR one partner is held on a chip, and binding of the other changes the refractive index at the surface.)

Test [3] shares this target. The test can be described thus: blocking ELISA: antibody titrated with fixed biotin-human NGF, on coated human TrkA. The procedure: The plate was incubated at 37° C. for 1.5 h. After the incubation was complete, the plate was washed 3 times with PBST. Streptavidin-HRP (Invitrogen, 434323, diluted at 1:4000) was added at 100 μL/well, and the plate was incubated at 37° C. for 1 h. The supernatant was removed. After the plate was washed 3 times with PBST, TMB chromogenic substrate (KPL, 5120-0077) was added at 100 μL/well, and the plate was incubated at room temperature for 10 to 15 min. […] The absorbance values at 450 nm were taken using a microplate reader.
A general note: An ELISA detects its analyte on a solid surface through an enzyme-linked reagent.

Test [4] has the same target. The test can be described thus: ELISA on coated antigen (1 ug/mL), anti-human Fc-HRP. The procedure:
(§1) The antigen was diluted to 1 μg/mL with a pH 7.4 PBS buffer (BasalMedia, B320) and added to a 96-well microplate (Coming, 9018) at 100 μL/well, and the plate was incubated overnight at 4° C. After the liquid was discarded, a 5% skim milk (BD, 232100) blocking solution diluted with PBS was added at 300 μL/well, and the plate was incubated at 37° C. for 2 h for blocking. After the blocking was complete, the blocking solution was discarded, and the plate was washed 3 times with a PBST buffer (pH 7.4 PBS containing 0.1% tween-20). Then a bispecific antibody diluted with a sample diluent (pH 7.4 containing 1% BSA) to different concentrations was added at 100 μL/well, and the plate was incubated in a 37° C. incubator for 1 h. After the incubation was complete, the plate was washed 3 times with PBST. An HRP-labeled anti-human Fc secondary antibody (Abcam, ab97225) diluted with the sample diluent was added at 100 μL/well, and the plate was incubated at 37° C. for 1 h. After the plate was washed 3 times with PBST, TMB chromogenic substrate (KPL, 5120-0077) was added at 100 μL/well, and the plate was incubated at room temperature for 10 to 15 min. 50 μL of 1 M H₂SO₄ was added to each well to stop the reactions. The absorbance values at 450 nm were taken using a microplate reader, and the EC50 values for binding of the bispecific antibody to the antigens were calculated.

For test [5], the target named is T2, murine NGF (Sino Biological, 50385-MNAC) (murine, UniProt P01139 122-241).
T2 construct: Bought protein
The description is as above. The procedure: as §1

In test [6] the target is T3, human RANKL protein (Sino Biological, 11682-HNCH) (human, UniProt O14788 136-317, limits assumed).
T3 construct: Bought protein
T3 sequence (looked up): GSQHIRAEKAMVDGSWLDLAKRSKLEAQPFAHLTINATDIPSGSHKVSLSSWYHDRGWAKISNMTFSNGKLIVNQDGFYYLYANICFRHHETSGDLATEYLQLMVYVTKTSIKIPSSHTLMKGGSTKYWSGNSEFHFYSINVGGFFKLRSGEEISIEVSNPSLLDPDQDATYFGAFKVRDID
The description is as above. The procedure:
as §1

Test [7] concerns the target T4, murine RANKL (R&D Systems, 462-TR/CF) (murine, UniProt O35235 72-316, limits assumed).
T4 construct: Bought protein
T4 sequence (looked up): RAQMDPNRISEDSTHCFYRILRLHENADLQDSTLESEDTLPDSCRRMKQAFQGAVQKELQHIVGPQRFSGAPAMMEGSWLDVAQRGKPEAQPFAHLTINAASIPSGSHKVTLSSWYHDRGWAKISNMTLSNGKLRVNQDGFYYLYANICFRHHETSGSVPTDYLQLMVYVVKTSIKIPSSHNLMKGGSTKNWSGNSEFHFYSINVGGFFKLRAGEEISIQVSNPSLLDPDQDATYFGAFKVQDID
The description is as above. Here is the method:
as §1

The target in test [8] is T1, human NGF protein (Sino biological, …). The test can be described thus: cell-based or functional assay. The source holds these as a separate data set.

Data on 1 molecule can be found in patent publication US20240254245A1 (JIANGSU HENGRUI PHARMACEUTICALS, published 2024).

T1 sequence (P01138 122-241 limits assumed): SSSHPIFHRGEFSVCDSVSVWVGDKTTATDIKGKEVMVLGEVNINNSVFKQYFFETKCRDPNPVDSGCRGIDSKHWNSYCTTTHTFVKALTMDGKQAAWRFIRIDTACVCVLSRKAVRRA
T2 sequence (P01139 122-241 limits assumed): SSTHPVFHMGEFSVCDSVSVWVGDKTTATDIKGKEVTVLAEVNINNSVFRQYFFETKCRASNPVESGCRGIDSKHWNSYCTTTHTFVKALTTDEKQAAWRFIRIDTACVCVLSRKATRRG

B1: Tanezumab (antibody, human IgG2, kappa, V domains shown)
VH: QVQLQESGPGLVKPSETLSLTCTVSGFSLIGYDLNWIRQPPGKGLEWIGIIWGDGTTDYNSAVKSRVTISKDTSKNQFSLKLSSVTAADTAVYYCARGGYWYATSYYFDYWGQGTLVTVSS
VL: DIQMTQSPSSLSASVGDRVTITCRASQSISNNLNWYQQKPGKAPKLLIYYTSRFHSGVPSRFSGSGSGTDFTFTISSLQPEDIATYYCQQEHTLPYTFGQGTKLEIKR
notes: Control antibody; also called control anti-NGF antibody
Usually Kd stands for the constant that tells how readily two partners part at equilibrium. Low readings indicate tighter binding, high ones weaker binding. In general, koff refers to the rate constant with which the complex falls apart. Higher therefore signals a short-lived complex. One may read the kon as the second-order rate constant of association. A higher kon goes with fast association. One may read the IC50 as the point on the concentration scale where inhibition reaches its midpoint. For orientation: EC50 means the concentration giving half of the maximal effect. Consider B1, for which the “TF-1 cell proliferation-inhibiting activity, fold relative to bispecific antibody 1” value in test [1] is about 4.2 times. In test [2], this molecule came in with a Kd of 0.142 nM, an off-rate constant (koff) of 0.000184 s⁻¹ and a kon of 1.29e+06 M⁻¹ s⁻¹. In test [3], this molecule returned a half-inhibitory concentration (IC50) of 3.66 nM. Moreover, the concentration for a half-maximal effect (EC50) in test [4] is 2.27 nM. This molecule displayed a concentration giving a half-maximal response (EC50) in test [5] of 1.15 nM. Moreover, the binding result in test [6] is “no binding”. In test [7], the binding result is given as “no binding”. For the same molecule, in test [8], the “TF-1 cell proliferation-inhibiting activity (TF-1 cells + human NGF, Cell-titer Glo) IC50” value was found to be 0.759 nM.
